Drawing on publication PMC314469, “Protein Interaction Networks by Proteome Peptide Scanning” (PLoS Biology, 2004), this text covers normalised SPOT signal, Boehringer light units (BLU); mean over the file's lines of this peptide for 6 molecules.

To fix the notation:
T1: Boi1 SH3 (BOI1_YEAST), P38041
T1 chain: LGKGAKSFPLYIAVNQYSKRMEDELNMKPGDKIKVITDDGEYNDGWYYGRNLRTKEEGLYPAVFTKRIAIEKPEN

T2: Boi2 SH3 (BOI2_YEAST), P39969
T2 chain: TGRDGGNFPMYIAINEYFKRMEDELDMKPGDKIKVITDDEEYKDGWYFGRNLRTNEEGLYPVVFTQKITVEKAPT

T3: Myo5 SH3 (MYO5_YEAST), Q04439
T3 chain: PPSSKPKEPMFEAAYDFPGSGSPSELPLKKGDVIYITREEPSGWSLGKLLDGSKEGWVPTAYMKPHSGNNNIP

T4: Rvs167 SH3 (RV167_YEAST), P39743
T4 chain: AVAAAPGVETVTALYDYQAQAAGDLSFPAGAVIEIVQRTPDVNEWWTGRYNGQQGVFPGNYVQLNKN

T5: Yfr024 SH3 (LSB3_YEAST), P43603
T5 chain: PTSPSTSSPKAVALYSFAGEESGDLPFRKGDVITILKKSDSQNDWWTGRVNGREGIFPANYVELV

T6: Yhr016c SH3 (YSC84_YEAST), P32793
T6 chain: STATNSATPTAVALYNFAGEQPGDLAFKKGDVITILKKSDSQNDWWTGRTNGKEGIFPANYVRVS

The first experiment deals with T1, Boi1 SH3 (BOI1_YEAST), P38041. In words: SPOT array.
In turn, LPEPRFYPLSPKNN [YCL051W 94-107] gave a normalised SPOT signal, Boehringer light units (BLU); mean over the file's lines of this peptide of 95.3.

As for LPLSRVQPVQPSQT [YNL007C 295-308], the normalised SPOT signal, Boehringer light units (BLU); mean over the file's lines of this peptide stood at 31.9.

In turn, LPKLKSNPSVPHLH [YBR218C 505-518] returned a normalised SPOT signal, Boehringer light units (BLU); mean over the file's lines of this peptide of 843.

As to LPFPRKNPKLPENT [YHR099W 3263-3276], the normalised SPOT signal, Boehringer light units (BLU); mean over the file's lines of this peptide was found to be 289.

In turn, LQNAKNDPLPPVIE [YDL077C 56-69] showed a normalised SPOT signal, Boehringer light units (BLU); mean over the file's lines of this peptide of 120.

With LPLPKLRPPRPTFA [YKL097C 62-75], the normalised SPOT signal, Boehringer light units (BLU); mean over the file's lines of this peptide was 3930.

Another experiment has as its target T2, Boi2 SH3 (BOI2_YEAST), P39969. The experiment in a line: SPOT array.
The molecule LPEPRFYPLSPKNN [YCL051W 94-107] had a normalised SPOT signal, Boehringer light units (BLU); mean over the file's lines of this peptide of 47.

In turn, LPLSRVQPVQPSQT [YNL007C 295-308] registered a normalised SPOT signal, Boehringer light units (BLU); mean over the file's lines of this peptide of 27.1.

With LPKLKSNPSVPHLH [YBR218C 505-518], the normalised SPOT signal, Boehringer light units (BLU); mean over the file's lines of this peptide was 20.5.

LPFPRKNPKLPENT [YHR099W 3263-3276] returned a normalised SPOT signal, Boehringer light units (BLU); mean over the file's lines of this peptide of 38.3.

LQNAKNDPLPPVIE [YDL077C 56-69]: the normalised SPOT signal, Boehringer light units (BLU); mean over the file's lines of this peptide is 21.8.

LPLPKLRPPRPTFA [YKL097C 62-75] yielded a normalised SPOT signal, Boehringer light units (BLU); mean over the file's lines of this peptide of 3.7.

The target of the next experiment is T3, Myo5 SH3 (MYO5_YEAST), Q04439. In words: SPOT array.
Molecule LPEPRFYPLSPKNN [YCL051W 94-107] showed a normalised SPOT signal, Boehringer light units (BLU); mean over the file's lines of this peptide of 289.

With LPLSRVQPVQPSQT [YNL007C 295-308], the normalised SPOT signal, Boehringer light units (BLU); mean over the file's lines of this peptide turned out to be 122.

In turn, LPKLKSNPSVPHLH [YBR218C 505-518] registered a normalised SPOT signal, Boehringer light units (BLU); mean over the file's lines of this peptide of 193.

For the molecule LPFPRKNPKLPENT [YHR099W 3263-3276], the normalised SPOT signal, Boehringer light units (BLU); mean over the file's lines of this peptide was 147.

In turn, LQNAKNDPLPPVIE [YDL077C 56-69] returned a normalised SPOT signal, Boehringer light units (BLU); mean over the file's lines of this peptide of 58.8.

The molecule LPLPKLRPPRPTFA [YKL097C 62-75] gave a normalised SPOT signal, Boehringer light units (BLU); mean over the file's lines of this peptide of 77900.

The next experiment addresses T4, Rvs167 SH3 (RV167_YEAST), P39743. The experiment in a line: SPOT array.
The molecule LPEPRFYPLSPKNN [YCL051W 94-107] showed a normalised SPOT signal, Boehringer light units (BLU); mean over the file's lines of this peptide of 49.4.

LPLSRVQPVQPSQT [YNL007C 295-308] showed a normalised SPOT signal, Boehringer light units (BLU); mean over the file's lines of this peptide of 19.3.

Molecule LPKLKSNPSVPHLH [YBR218C 505-518] displayed a normalised SPOT signal, Boehringer light units (BLU); mean over the file's lines of this peptide of 52.3.

LPFPRKNPKLPENT [YHR099W 3263-3276] had a normalised SPOT signal, Boehringer light units (BLU); mean over the file's lines of this peptide of 40.2.

Molecule LQNAKNDPLPPVIE [YDL077C 56-69] displayed a normalised SPOT signal, Boehringer light units (BLU); mean over the file's lines of this peptide of 47.

The molecule LPLPKLRPPRPTFA [YKL097C 62-75] displayed a normalised SPOT signal, Boehringer light units (BLU); mean over the file's lines of this peptide of 87.3.

For a further experiment, the target named is Sho1 SH3 (SHO1_YEAST), P40073. The experiment in a line: SPOT array.
Sho1 SH3 (SHO1_YEAST), P40073, sequence (P40073 295-366): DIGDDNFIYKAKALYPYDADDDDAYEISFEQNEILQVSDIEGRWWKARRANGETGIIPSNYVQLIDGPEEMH
The molecule LPEPRFYPLSPKNN [YCL051W 94-107] gave a normalised SPOT signal, Boehringer light units (BLU); mean over the file's lines of this peptide of 33.

Consider LPLSRVQPVQPSQT [YNL007C 295-308], for which the normalised SPOT signal, Boehringer light units (BLU); mean over the file's lines of this peptide amounted to 32.8.

LPKLKSNPSVPHLH [YBR218C 505-518]: the normalised SPOT signal, Boehringer light units (BLU); mean over the file's lines of this peptide was determined as 114.

Regarding LPFPRKNPKLPENT [YHR099W 3263-3276], the normalised SPOT signal, Boehringer light units (BLU); mean over the file's lines of this peptide stood at 149.

With LQNAKNDPLPPVIE [YDL077C 56-69], the normalised SPOT signal, Boehringer light units (BLU); mean over the file's lines of this peptide stood at 0.2.

For LPLPKLRPPRPTFA [YKL097C 62-75], the normalised SPOT signal, Boehringer light units (BLU); mean over the file's lines of this peptide came to 76.3.

The target of the next experiment is T5, Yfr024 SH3 (LSB3_YEAST), P43603. The experiment in a line: SPOT array.
LPEPRFYPLSPKNN [YCL051W 94-107] came in with a normalised SPOT signal, Boehringer light units (BLU); mean over the file's lines of this peptide of 202.

The molecule LPLSRVQPVQPSQT [YNL007C 295-308] displayed a normalised SPOT signal, Boehringer light units (BLU); mean over the file's lines of this peptide of 163.

Molecule LPKLKSNPSVPHLH [YBR218C 505-518] displayed a normalised SPOT signal, Boehringer light units (BLU); mean over the file's lines of this peptide of 71.1.

The molecule LPFPRKNPKLPENT [YHR099W 3263-3276] showed a normalised SPOT signal, Boehringer light units (BLU); mean over the file's lines of this peptide of 322.

Consider LQNAKNDPLPPVIE [YDL077C 56-69], for which the normalised SPOT signal, Boehringer light units (BLU); mean over the file's lines of this peptide was 10.7.

Consider LPLPKLRPPRPTFA [YKL097C 62-75], for which the normalised SPOT signal, Boehringer light units (BLU); mean over the file's lines of this peptide turned out to be 16600.

Another experiment has as its target T6, Yhr016c SH3 (YSC84_YEAST), P32793. The experiment in a line: SPOT array.
Molecule LPEPRFYPLSPKNN [YCL051W 94-107] returned a normalised SPOT signal, Boehringer light units (BLU); mean over the file's lines of this peptide of 30.9.

LPLSRVQPVQPSQT [YNL007C 295-308] showed a normalised SPOT signal, Boehringer light units (BLU); mean over the file's lines of this peptide of 21.

As for LPKLKSNPSVPHLH [YBR218C 505-518], the normalised SPOT signal, Boehringer light units (BLU); mean over the file's lines of this peptide came out at 5.2.

LPFPRKNPKLPENT [YHR099W 3263-3276] returned a normalised SPOT signal, Boehringer light units (BLU); mean over the file's lines of this peptide of 44.2.

In turn, LQNAKNDPLPPVIE [YDL077C 56-69] registered a normalised SPOT signal, Boehringer light units (BLU); mean over the file's lines of this peptide of 37.2.

As for LPLPKLRPPRPTFA [YKL097C 62-75], the normalised SPOT signal, Boehringer light units (BLU); mean over the file's lines of this peptide worked out at 4270.
